{
  "source": "paper doi:10.1101/464131",
  "target": "BS69 CC-MYND domain (amino acids 480-602) (human) (UniProt Q15326)",
  "sequence (Q15326 480-602)": "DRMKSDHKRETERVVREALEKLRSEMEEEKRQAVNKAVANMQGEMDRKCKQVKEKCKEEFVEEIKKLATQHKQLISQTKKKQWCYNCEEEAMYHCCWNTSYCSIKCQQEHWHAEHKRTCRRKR",
  "assay": "ITC",
  "data": [
    {"substance": "type 1 EBNA2 motif 2 peptide (435-445)", "values": [
      {"measurement": "Kd", "value": 47.7, "unit": "µM"}
    ]},
    {"substance": "type 1 EBNA2 polypeptide T1 EBNA2_(381-445) (domain or fragment)", "values": [
      {"measurement": "Kd", "value": 0.95, "unit": "µM"},
      {"measurement": "stoichiometry N (molar ratio EBNA2 : BS69CC-MYND monomer)", "value": 0.42}
    ]}
  ]
}
